{
  "source": "patent US20250041435A1",
  "about": "(AstraZeneca / MedImmune, published 2025)",
  "key": {"[1]": {"molecular_target": "T1, human STEAP2 (six-transmembrane epithelial antigen of prostate 2) (human, UniProt Q8NFT2 1-490)", "T1 sequence": "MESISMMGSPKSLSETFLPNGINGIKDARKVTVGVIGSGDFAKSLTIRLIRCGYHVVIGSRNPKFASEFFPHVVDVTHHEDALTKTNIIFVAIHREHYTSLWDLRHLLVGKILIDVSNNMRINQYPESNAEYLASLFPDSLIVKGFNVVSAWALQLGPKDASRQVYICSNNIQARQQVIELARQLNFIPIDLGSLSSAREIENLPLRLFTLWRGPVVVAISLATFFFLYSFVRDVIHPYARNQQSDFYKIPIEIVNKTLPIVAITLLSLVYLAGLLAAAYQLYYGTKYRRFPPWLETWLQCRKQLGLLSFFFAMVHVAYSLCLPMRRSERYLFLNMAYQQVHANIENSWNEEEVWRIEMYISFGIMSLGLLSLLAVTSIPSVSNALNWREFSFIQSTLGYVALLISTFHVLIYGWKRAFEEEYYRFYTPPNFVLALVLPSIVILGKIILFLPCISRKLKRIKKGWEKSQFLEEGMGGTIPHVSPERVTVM", "test": "cell-based or functional assay"}, "[2]": {"molecular_target": "T1, human STEAP2 (six-transmembrane …)", "test": "cell-based or functional assay", "remark": "listed apart in the source"}, "[3]": {"molecular_target": "T2, murine chimeric STEAP3-2 protein on AD293 cells (murine)", "T2 construct": "Used to test cross-reactivity to mouse STEAP2; also called AD293 muSTEAP3-2; AD293 STEAP3-2", "test": "flow cytometry on AD293 muSTEAP3-2 cells, anti-human secondary", "method": "(§1) The cell-binding assays were designed to assess the binding affinities for parental 40A3-LO7 and its affinity matured derivatives to both human and murine STEAP2. The binding of the anti-STEAP2 antibodies were detected using a fluorescently labelled anti-human secondary antibody and standard methods of flow cytometry.\n(§2) Briefly, a seven point 3-fold serial dilutions of 5× antibodies (mAbs) was prepared in sterile filtered FACS Buffer (5% Heat Inactivated Fetal Bovine Serum in PBS pH 7.4). Ten microliters of the antibody dilutions were added into designated wells in a 96-well U-bottom clear plate. The evaluated cells lines were harvested using cold 0.25% Trypsin-EDTA, resuspended in maintenance media, pelleted, and counted. Cell density was adjusted to 2×10⁶ cells/ml and forty microliters of cells were seeded on top of the antibody dilutions and incubated for 30 minutes. Cells were washed and a solution containing a 1:400 dilution of anti-human secondary antibody and a 1:1000 dilution of DAPI. After another 30 minute incubation, cells were washed, and then transferred to the FACS instrument for analysis."}, "[4]": {"molecular_target": "T1, human STEAP2 (six-transmembrane …)", "test": "flow cytometry on LNCaP cells (endogenous human STEAP2), anti-human AF647 secondary", "method": "as §1, §2"}, "[5]": {"molecular_target": "T1, human STEAP2 (six-transmembrane …)", "test": "cell-based binding (flow cytometry)"}, "[6]": {"molecular_target": "T1, human STEAP2 (six-transmembrane …)", "test": "flow cytometry on LNCaP cells (endogenous human STEAP2)"}, "[7]": {"molecular_target": "T2, murine chimeric STEAP3-2 protein on …", "test": "flow cytometry on AD293 muSTEAP3-2 cells, fluorescent anti-human secondary antibody", "method": "as §1, §2"}},
  "data": [
    {"binder": "LO14 SG3932 DAR8 ADC (antibody, human IgG1, kappa, V domains shown, SG3932 on native cysteines (DAR 8 per antibody); SG3932 (TOP1i, cleavable mal-PEG8-val-ala linker) on native cysteines through a thiosuccinimide linkage; DAR 8 per antibody) VH: QVQLQQSGPGLVKPSQTLSLTCAISGDSVSRNSAVWNWIRQSPSRGLEWLGRTYYRSKWYNDYAPSVKSRITINPDTSKNQFSLQLNSVTPEDTAVYYCARGLRQNQFYYYMDVWGKGTTVTVSS VL: not shown", "values": [
      {"measurement": "IC50 of cell viability, LNCaP cells (CellTiter-Glo)", "setting": "[1]", "result": 0.3, "unit": "nM"},
      {"measurement": "In Vitro Potency (22Rv1), IC50 of cell viability (CellTiter-Glo)", "setting": "[2]", "result": 4.53, "unit": "nM"},
      {"measurement": "In Vitro Potency (C4-2), IC50 of cell viability (CellTiter-Glo)", "setting": "[2]", "result": 2.23, "unit": "nM"},
      {"measurement": "In Vitro Potency (LNCaP), IC50 of cell viability (CellTiter-Glo)", "setting": "[2]", "result": 0.22, "unit": "nM"}
    ]},
    {"binder": "40A3-LO14 (antibody, human IgG1, kappa, V domains shown, also called 40A3GL-LO14; LO14 mAb) VH: QVQLQQSGPGLVKPSQTLSLTCAISGDSVSRNSAVWNWIRQSPSRGLEWLGRTYYRSKWYNDYAPSVKSRITINPDTSKNQFSLQLNSVTPEDTAVYYCARGLRQNQFYYYMDVWGKGTTVTVSS VL: not shown", "values": [
      {"measurement": "EC50", "setting": "[3]", "result": 0.97, "unit": "nM"},
      {"measurement": "EC50", "setting": "[4]", "result": 1.67, "unit": "nM"},
      {"measurement": "fold improvement in binding relative to 40A3-LO7", "setting": "[5]", "result": 26, "unit": "fold"}
    ]},
    {"binder": "LO11 SG3932 DAR8 ADC (antibody, human IgG1, kappa, V domains shown, SG3932 on native cysteines (DAR 8 per antibody); SG3932 (TOP1i, cleavable mal-PEG8-val-ala linker) on native cysteines through a thiosuccinimide linkage; DAR 8 per antibody) VH: QVQLQQSGPGLVKPSQTLSLTCAISGDSVSRNSAVWNWIRQSPSRGLEWLGRTYYRSKWYNDYAPSVKSRITINPDTSKNQFSLQLNSVTPEDTAVYYCARGLLQNQFYYYMDVWGKGTTVTVSS VL: not shown", "values": [
      {"measurement": "IC50 of cell viability, LNCaP cells (CellTiter-Glo)", "setting": "[1]", "result": 2.78, "unit": "nM"},
      {"measurement": "In Vitro Potency (22Rv1), IC50 of cell viability (CellTiter-Glo)", "setting": "[2]", "result": 32.1, "unit": "nM"},
      {"measurement": "In Vitro Potency (C4-2), IC50 of cell viability (CellTiter-Glo)", "setting": "[2]", "result": 16.5, "unit": "nM"},
      {"measurement": "In Vitro Potency (LNCaP), IC50 of cell viability (CellTiter-Glo)", "setting": "[2]", "result": 1.7, "unit": "nM"}
    ]},
    {"binder": "40A3-LO12 (antibody, V domains shown, Human IgG1 kappa) VH: QVQLQQSGPGLVKPSQTLSLTCAISGDSVSRNSAVWNWIRQSPSRGLEWLGRTYYRSKWYNDYAVSVKSRITINPDTSKNQFSLQLNSVTPEDTAVYYCARGLRQNQFYYYMDVWGKGTTVTVSS VL: not shown", "values": [
      {"measurement": "EC50", "setting": "[6]", "result": 1.72, "unit": "nM"}
    ]},
    {"binder": "40A3-LO11 (antibody, human IgG1, kappa, V domains shown, also called 40A3GL-LO11; LO11 mAb) VH: QVQLQQSGPGLVKPSQTLSLTCAISGDSVSRNSAVWNWIRQSPSRGLEWLGRTYYRSKWYNDYAPSVKSRITINPDTSKNQFSLQLNSVTPEDTAVYYCARGLLQNQFYYYMDVWGKGTTVTVSS VL: not shown", "values": [
      {"measurement": "EC50", "setting": "[3]", "result": 5.78, "unit": "nM"},
      {"measurement": "EC50", "setting": "[4]", "result": 2.38, "unit": "nM"}
    ]},
    {"binder": "40A3-LO7 (antibody, V domains shown, Germlined, de-risked 40A3; Human IgG1 kappa; also called 40A3GL-LO7; STEAP2-3 VH / STEAP2-3 VL) VH: QVQLQQSGPGLVKPSQTLSLTCAISGDSVSRNSAVWNWIRQSPSRGLEWLGRTYYRSKWYNDYAVSVKSRITINPDTSKNQFSLQLNSVTPEDTAVYYCARGLLQNQFYYYMDVWGKGTTVTVSS VL: not shown", "values": [
      {"measurement": "EC50 (read off the curve)", "setting": "[7]", "result": "~5", "unit": "µg/mL"},
      {"measurement": "EC50", "setting": "[6]", "result": 43.3, "unit": "nM"}
    ]}
  ]
}
